Key:
[1] = biological target: T1, recombinant Frizzled receptor 7 (FZD7) cysteine-rich domain (CRD) fused to the Fc region of human IgG (human, UniProt O75084 33-185); experiment: ELISA, 10ug/ml (200nM) Fab [cont'd]
Procedure: (§1) FIG. 2B is a table depicting the binding of purified Fabs to purified FZD7-Fc measured by ELISA. Fabs purified from 25 ml bacterial cultures were assayed for binding to FZD7-Fc fusion protein (R&D systems) and Fc protein. ELISA plates (384 well) were coated with 2 ug/ml of protein in PBS overnight at four degrees. Wells were blocked with 0.5% BSA/PBS for 1 hour at room temperature, washed three times with 0.05% Tween20/PBS (wash buffer), and then primary dilutions of Fabs in 0.5% BSA/0.05% Tween20/PBS (dilution buffer) were added at indicated concentrations. Fabs were incubated for 1 hour at room temperature, wells were washed six times, and anti-FLAG-HRP (Sigma) was added at 1:5000 in dilution buffer. Secondary antibody was incubated for 45 minutes at room temperature, and wells were washed six times and developed with TMB substrate with an acid stop. The absorbance at 450 nm was read. n.t.=not tested.

[2] = biological target: T2, Fc control protein; experiment: ELISA, 10ug/ml (200nM) Fab [cont'd]
T2 construct: also called Fc protein; control Fc protein
Procedure: as §1

[3] = biological target: T3, FZD7 receptor expressed on cells (full-length) (UniProt O75084 33-574, limits assumed); experiment: flow cytometry, 200 nM Fab, MDA MB 231 [cont'd]
T3 construct: whole, on cells; MDA MB 231 cells may carry other Frizzled receptors too; also called full-length FZD7 receptor; endogenous receptor on MDA MB 231 cells
Procedure: (§2) FIG. 3 is a table depicting the binding of the purified Fabs to cells expressing FZD7 (flow cytometry). Small scale Fabs were assayed for binding to full-length FZD7 receptor to an over-expression line in MDA MB 231 cells. In parallel, Fabs were assayed for binding to endogenous receptor expressed on the MDA MB 231 cells. Cells were harvested using an EDTA solution, blocked in 2% FBS/PBS (stain buffer), and stained with 200 nM Fab for 30 min on ice. Cells were washed two times with stain buffer and incubated with anti-F(ab′)₂-APC secondary antibody (Jackson Immuno) at 1:1000 for 15 minutes on ice. All antibodies were diluted in stain buffer. Cells were washed three times with stain buffer and then fixed with 1% paraformaldehye for analysis by flow cytometry. […] The percent of the cell population within the positive gates is indicated.

[4] = biological target: T1, recombinant Frizzled receptor 7 (FZD7) …; experiment: ELISA, 1ug/ml (20nM) Fab [cont'd]
Procedure: as §1

[5] = biological target: T2, Fc control protein; experiment: ELISA, 1ug/ml (20nM) Fab [cont'd]
Procedure: as §1

[6] = biological target: T3, FZD7 receptor expressed on cells …; experiment: flow cytometry, 200 nM Fab, FZD7 over-expression line (MDA MB 231) [cont'd]
Procedure: as §2

Binder | OD 450 [1] | OD 450 [2] | % population within the positive gate [3] | OD 450 [4] | OD 450 [5] | % population within the positive gate [6]
G7 (Fab, selection round 3; also called Fzd7-R3-G7) light: DIQMTQSPSSLSASVGDRVTITCRASQSVSSAVAWYQQKPGKAPKLLIYSASSLYSGVPSRFSGSRSGTDFTLTISSLQPEDFATYYCQQYGYWWVSLFTFGQGTKVEIKRTVAAPSVFIFPPSDSQLKSGTASVVCLLNNFYPREAKVQWKVDNALQSGNSQESVTEQDSKDSTYSLSSTLTLSKADYEKHKVYACEVTHQGLSSPVTKSFNRGECGGS heavy: EVQLVESGGGLVQPGGSLRLSCAASGFNLYYYSIHWVRQAPGKGLEWVASIYSYSSYTYYADSVKGRFTISADTSKNTAYLQMNSLRAEDTAVYYCARWWPGHYSGYGSGALDYWGQGTLVTVSSASTKGPSVFPLAPSSKSTSGGTAALGCLVKDYFPEPVTVSWNSGALTSGVHTFPAVLQSSGLYSLSSVVTVPSSSLGTQTYICNVNHKPSNTKVDKKVEPKSC | 2.98 | 0.13 | 15.3% | 1.9 | 0.06 | 84.2%
B2 (Fab, selection round 3; also called Fzd7-R3-B2) light: DIQMTQSPSSLSASVGDRVTITCRASQSVSSAVAWYQQKPGKAPKLLIYSASSLYSGVPSRFSGSRSGTDFTLTISSLQPEDFATYYCQQSSYSLITFGQGTKVEIKRTVAAPSVFIFPPSDSQLKSGTASVVCLLNNFYPREAKVQWKVDNALQSGNSQESVTEQDSKDSTYSLSSTLTLSKADYEKHKVYACEVTHQGLSSPVTKSFNRGECGGS heavy: EVQLVESGGGLVQPGGSLRLSCAASGFNLSYSYMHWVRQAPGKGLEWVASIYSSYGYTSYADSVKGRFTISADTSKNTAYLQMNSLRAEDTAVYYCARYYGWAYYYSYFPAWAGGGIDYWGQGTLVTVSSASTKGPSVFPLAPSSKSTSGGTAALGCLVKDYFPEPVTVSWNSGALTSGVHTFPAVLQSSGLYSLSSVVTVPSSSLGTQTYICNVNHKPSNTKVDKKVEPKSC | 3.18 | 0.1 | 15.9% | 2.92 | 0.06 | 86.2%
F3 (Fab, selection round 3; also called Fzd7-R3-F3) light: DIQMTQSPSSLSASVGDRVTITCRASQSVSSAVAWYQQKPGKAPKLLIYSASSLYSGVPSRFSGSRSGTDFTLTISSLQPEDFATYYCQQGGHYWLITFGQGTKVEIKRTVAAPSVFIFPPSDSQLKSGTASVVCLLNNFYPREAKVQWKVDNALQSGNSQESVTEQDSKDSTYSLSSTLTLSKADYEKHKVYACEVTHQGLSSPVTKSFNRGECGGS heavy: EVQLVESGGGLVQPGGSLRLSCAASGFNISYSSMHWVRQAPGKGLEWVASISSSYGYTSYADSVKGRFTISADTSKNTAYLQMNSLRAEDTAVYYCARSYYGYYVGYGYSSWSGSGMDYWGQGTLVTVSSASTKGPSVFPLAPSSKSTSGGTAALGCLVKDYFPEPVTVSWNSGALTSGVHTFPAVLQSSGLYSLSSVVTVPSSSLGTQTYICNVNHKPSNTKVDKKVEPKSC | 2.97 | 0.07 | 1% | 2.35 | 0.06 | 82.5%

Further lines, results first:

OD 450 [1] | OD 450 [2] | % population within the positive gate [3] | OD 450 [4] | OD 450 [5] | % population within the positive gate [6] | Binder
3.26 | 0.06 | 46.7% | 3.22 | 0.05 | 91.5% | B9 (Fab, selection round 3; also called Fzd7-R3-B9) light: DIQMTQSPSSLSASVGDRVTITCRASQSVSSAVAWYQQKPGKAPKLLIYSASSLYSGVPSRFSGSRSGTDFTLTISSLQPEDFATYYCQQWWASGVGPFTFGQGTKVEIKRTVAAPSVFIFPPSDSQLKSGTASVVCLLNNFYPREAKVQWKVDNALQSGNSQESVTEQDSKDSTYSLSSTLTLSKADYEKHKVYACEVTHQGLSSPVTKSFNRGECGGS heavy: EVQLVESGGGLVQPGGSLRLSCAASGFNLYSSSIHWVRQAPGKGLEWVAYISSYYSSTYYADSVKGRFTISADTSKNTAYLQMNSLRAEDTAVYYCARPAMDYWGQGTLVTVSSASTKGPSVFPLAPSSKSTSGGTAALGCLVKDYFPEPVTVSWNSGALTSGVHTFPAVLQSSGLYSLSSVVTVPSSSLGTQTYICNVNHKPSNTKVDKKVEPKSC
3.24 | 0.06 | 98.2% | 3.22 | 0.06 | 93.7% | B10 (Fab, selection round 3; also called Fzd7-R3-B10) light: DIQMTQSPSSLSASVGDRVTITCRASQSVSSAVAWYQQKPGKAPKLLIYSASSLYSGVPSRFSGSRSGTDFTLTISSLQPEDFATYYCQQYWASLITFGQGTKVEIKRTVAAPSVFIFPPSDSQLKSGTASVVCLLNNFYPREAKVQWKVDNALQSGNSQESVTEQDSKDSTYSLSSTLTLSKADYEKHKVYACEVTHQGLSSPVTKSFNRGECGGS heavy: EVQLVESGGGLVQPGGSLRLSCAASGFNISYYYIHWVRQAPGKGLEWVAYISPYYGSTYYADSVKGRFTISADTSKNTAYLQMNSLRAEDTAVYYCARSWSYSYYYSHPGWSPVWAMDYWGQGTLVTVSSASTKGPSVFPLAPSSKSTSGGTAALGCLVKDYFPEPVTVSWNSGALTSGVHTFPAVLQSSGLYSLSSVVTVPSSSLGTQTYICNVNHKPSNTKVDKKVEPKSC
3.12 | 0.09 | 0.7% | 3.05 | 0.06 | 80.9% | D9 (Fab, selection round 3; also called Fzd7-R3-D9) light: DIQMTQSPSSLSASVGDRVTITCRASQSVSSAVAWYQQKPGKAPKLLIYSASSLYSGVPSRFSGSRSGTDFTLTISSLQPEDFATYYCQQSSYSLITFGQGTKVEIKRTVAAPSVFIFPPSDSQLKSGTASVVCLLNNFYPREAKVQWKVDNALQSGNSQESVTEQDSKDSTYSLSSTLTLSKADYEKHKVYACEVTHQGLSSPVTKSFNRGECGGS heavy: EVQLVESGGGLVQPGGSLRLSCAASGFNLSYSSMHWVRQAPGKGLEWVASIYSSYSSTSYADSVKGRFTISADTSKNTAYLQMNSLRAEDTAVYYCARGAGYYWWHYYYVHGAMDYWGQGTLVTVSSASTKGPSVFPLAPSSKSTSGGTAALGCLVKDYFPEPVTVSWNSGALTSGVHTFPAVLQSSGLYSLSSVVTVPSSSLGTQTYICNVNHKPSNTKVDKKVEPKSC
3.2 | 0.1 | 96.6% | 3.09 | 0.07 | 87.1% | E9 (Fab, selection round 3; also called Fzd7-R3-E9) light: DIQMTQSPSSLSASVGDRVTITCRASQSVSSAVAWYQQKPGKAPKLLIYSASSLYSGVPSRFSGSRSGTDFTLTISSLQPEDFATYYCQQAVYHALITFGQGTKVEIKRTVAAPSVFIFPPSDSQLKSGTASVVCLLNNFYPREAKVQWKVDNALQSGNSQESVTEQDSKDSTYSLSSTLTLSKADYEKHKVYACEVTHQGLSSPVTKSFNRGECGGS heavy: EVQLVESGGGLVQPGGSLRLSCAASGFNIYYSSMHWVRQAPGKGLEWVASISSYSSSTYYADSVKGRFTISADTSKNTAYLQMNSLRAEDTAVYYCARSAVVHYPAGYWVYWGWYAFDYWGQGTLVTVSSASTKGPSVFPLAPSSKSTSGGTAALGCLVKDYFPEPVTVSWNSGALTSGVHTFPAVLQSSGLYSLSSVVTVPSSSLGTQTYICNVNHKPSNTKVDKKVEPKSC
3.21 | 0.16 | 6.1% | 3.12 | 0.06 | 84.7% | G9 (Fab, selection round 3; also called Fzd7-R3-G9) light: DIQMTQSPSSLSASVGDRVTITCRASQSVSSAVAWYQQKPGKAPKLLIYSASSLYSGVPSRFSGSRSGTDFTLTISSLQPEDFATYYCQQYYYSSPITFGQGTKVEIKRTVAAPSVFIFPPSDSQLKSGTASVVCLLNNFYPREAKVQWKVDNALQSGNSQESVTEQDSKDSTYSLSSTLTLSKADYEKHKVYACEVTHQGLSSPVTKSFNRGECGGS heavy: EVQLVESGGGLVQPGGSLRLSCAASGFNISYYYIHWVRQAPGKGLEWVAYISPSSGYTSYADSVKGRFTISADTSKNTAYLQMNSLRAEDTAVYYCARGYPVYSWVWSFGAFDYWGQGTLVTVSSASTKGPSVFPLAPSSKSTSGGTAALGCLVKDYFPEPVTVSWNSGALTSGVHTFPAVLQSSGLYSLSSVVTVPSSSLGTQTYICNVNHKPSNTKVDKKVEPKSC

— patent publication US20160194394A1 (GOVERNING COUNCIL OF THE UNIVERSITY OF TORONTO, published 2016)
